PMC6891888 (Immunity, 2019)

Biological target: T1, HIV-1 Env on the cell surface (HIV-1, strain BG505 (clade A), wild type, UniProt Q2N0S6)
T1 construct: also called cell-surface HIV-1 Env; source: 293T, transfected, on cells
Assay: flow cytometry on cells
Conditions: one partner purified

B1: 1C2 (rabbit monoclonal antibody, IgG) (antibody, V domains shown)
VH: QSLEESGGDLVKPGASLTLTCTASGFSFGWNDYMSWVRQAPGKGLEWIGCIYAGSTRSTYYANWAKGRLTISKTSSTAVTLQMTSLTAADTATYFCARGAVTYDGLGGAYLKHFNLWGPGTLVTVSS
VL: AIKMTQTPSSVSAAVGGTVTVNCRASEDIESYLAWYQQKPGQPPKLLIYDTSKLASGVPSRFKGSGSGTQFALTISGVQCDDAATYYCLYGYISSDRIDFGFGGGTELVVK
notes: also called bNAb 1C2; vax-bNAb 1C2
  binding result: binds
